# Paper doi:10.1101/2025.02.12.637899, “UB-MBX-46 is a potent and selective antagonist of the human P2X7 receptor developed by structure-based drug design” (bioRxiv, 2025)
# B1: full-length wild-type mouse P2X7 receptor (receptor, UniProt Q9Z1M0 1-595, looked up)
# chain: MPACCSWNDVLQYETNKVTRIQSTNYGTVKWVLHMIVFSYISFALVSDKLYQRKEPVISSVHTKVKGIAEVTENVTEGGVTKLGHSIFDTADYTFPLQGNSFFVMTNYVKSEGQVQTLCPEYPRRGAQCSSDRRCKKGWMDPQSKGIQTGRCVPYDKTRKTCEVSAWCPTEEEKEAPRPALLRSAENFTVLIKNNIHFPGHNYTTRNILPTMNGSCTFHKTWDPQCSIFRLGDIFQEAGENFTEVAVQGGIMGIEIYWDCNLDSWSHHCRPRYSFRRLDDKNTDESFVPGYNFRYAKYYKENNVEKRTLIKAFGIRFDILVFGTGGKFDIIQLVVYIGSTLSYFGLATVCIDLLINTYSSAFCRSGVYPYCKCCEPCTVNEYYYRKKCESIMEPKPTLKYVSFVDEPHIRMVDQQLLGKSLQVVKGQEVPRPQMDFSDLSRLSLSLHDSPLTPGQSEEIQLLHEEVAPKSGDSPSWCQCGNCLPSRLPEQRRALEELCCRRKPGRCITTSKLFHKLVLSRDTLQLLLLYQDPLLVLGEEATNSRLRHRAYRCYATWRFGSQDMADFAILPSCCRWRIRKEFPKTEGQYSGFKYPY
# modifications: palmitoylation of residues on the C-cys anchor; limited glycosylation, acylation and palmitoylation modelled where density allowed
# notes: P2X7 receptor (P2X purinoceptor 7), mouse, full-length wild type, no mutations or truncations; UniProt Q9Z1M0; The construct carries a C-terminal GFP, a 3C protease site and a histidine tag; digested with HRV 3C protease before SEC; Homotrimer in the apo closed state structure; also called mP2X7R; mP2X7; source: HEK293 GNTI- cells, BacMam, purified (DDM/CHS, TALON, SEC); not shown: GFP, …
# B2: full-length wild-type human P2X7 receptor (receptor, UniProt Q99572 1-595, looked up)
# chain: MPACCSCSDVFQYETNKVTRIQSMNYGTIKWFFHVIIFSYVCFALVSDKLYQRKEPVISSVHTKVKGIAEVKEEIVENGVKKLVHSVFDTADYTFPLQGNSFFVMTNFLKTEGQEQRLCPEYPTRRTLCSSDRGCKKGWMDPQSKGIQTGRCVVYEGNQKTCEVSAWCPIEAVEEAPRPALLNSAENFTVLIKNNIDFPGHNYTTRNILPGLNITCTFHKTQNPQCPIFRLGDIFRETGDNFSDVAIQGGIMGIEIYWDCNLDRWFHHCRPKYSFRRLDDKTTNVSLYPGYNFRYAKYYKENNVEKRTLIKVFGIRFDILVFGTGGKFDIIQLVVYIGSTLSYFGLAAVFIDFLIDTYSSNCCRSHIYPWCKCCQPCVVNEYYYRKKCESIVEPKPTLKYVSFVDESHIRMVNQQLLGRSLQDVKGQEVPRPAMDFTDLSRLPLALHDTPPIPGQPEEIQLLRKEATPRSRDSPVWCQCGSCLPSQLPESHRCLEELCCRKKPGACITTSELFRKLVLSRHVLQFLLLYQEPLLALDVDSTNSRLRHCAYRCYATWRFGSQDMADFAILPSCCRWRIRKEFPKSEGQYSGFKSPY
# modifications: palmitoylation of residues on the C-cys anchor; limited glycosylation, acylation and palmitoylation modelled where density allowed
# notes: P2X7 receptor (P2X purinoceptor 7), human, full-length wild type, no mutations or truncations; UniProt Q99572; The construct carries a C-terminal GFP, a 3C protease site and a histidine tag; the protein was digested with HRV 3C protease before SEC; also called hP2X7R; hP2X7; not shown: GFP, C-terminal, cleaved
# Target: the molecule itself
# Assay: cryo-EM structure; purified receptor in 20 mM HEPES pH 7.0, 100 mM NaCl, 0.5 mM C12M (DDM); apo, or incubated with 900 uM ATP or with antagonist at 3-4x the molar concentration of the monomer; homotrimer
row,Protein,stoichiometry N
1,B1,3
2,B2,3
